From patent US6348573B1, “Compositions and methods for identifying apoptosis signaling pathway inhibitors and activators” (The Regents of the University of Michigan, priority 1998, dated 2002)

Assays:
[1] = target: T1, caspase-1, epitope-tagged (human, UniProt P29466 1-404); assay: co-immunoprecipitation from co-transfected 293T cells, immunoblot
T1 construct: also called pcDNA3-caspase-1-Flag
T1 sequence: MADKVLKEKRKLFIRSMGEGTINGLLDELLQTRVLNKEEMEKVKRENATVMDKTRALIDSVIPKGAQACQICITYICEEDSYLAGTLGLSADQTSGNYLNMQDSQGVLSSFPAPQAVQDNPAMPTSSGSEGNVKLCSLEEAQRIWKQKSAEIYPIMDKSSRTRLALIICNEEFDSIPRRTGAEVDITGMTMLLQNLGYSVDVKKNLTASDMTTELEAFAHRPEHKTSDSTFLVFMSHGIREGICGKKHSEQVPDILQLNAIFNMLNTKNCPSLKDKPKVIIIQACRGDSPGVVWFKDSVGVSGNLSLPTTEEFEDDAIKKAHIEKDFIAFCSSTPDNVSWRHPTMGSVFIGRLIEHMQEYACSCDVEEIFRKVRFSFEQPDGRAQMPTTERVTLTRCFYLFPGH

[2] = target: T2, caspase-3, epitope-tagged (UniProt P42574 1-277); assay: as above
T2 construct: also called pcDNA3-caspase-3-Flag; not shown: position and
T2 sequence (looked up): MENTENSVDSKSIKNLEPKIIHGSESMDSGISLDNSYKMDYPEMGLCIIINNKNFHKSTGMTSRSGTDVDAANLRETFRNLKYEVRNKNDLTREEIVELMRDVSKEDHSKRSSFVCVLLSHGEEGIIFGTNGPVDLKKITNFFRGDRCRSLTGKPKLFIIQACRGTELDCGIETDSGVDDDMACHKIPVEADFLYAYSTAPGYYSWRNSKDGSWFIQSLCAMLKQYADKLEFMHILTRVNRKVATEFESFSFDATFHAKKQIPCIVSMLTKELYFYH

[3] = target: T3, caspase-9, Flag-tagged (pcDNA3-caspase-9-Flag) (UniProt P55211 1-416); assay: as above
T3 construct: not shown: Flag tag
T3 sequence (looked up): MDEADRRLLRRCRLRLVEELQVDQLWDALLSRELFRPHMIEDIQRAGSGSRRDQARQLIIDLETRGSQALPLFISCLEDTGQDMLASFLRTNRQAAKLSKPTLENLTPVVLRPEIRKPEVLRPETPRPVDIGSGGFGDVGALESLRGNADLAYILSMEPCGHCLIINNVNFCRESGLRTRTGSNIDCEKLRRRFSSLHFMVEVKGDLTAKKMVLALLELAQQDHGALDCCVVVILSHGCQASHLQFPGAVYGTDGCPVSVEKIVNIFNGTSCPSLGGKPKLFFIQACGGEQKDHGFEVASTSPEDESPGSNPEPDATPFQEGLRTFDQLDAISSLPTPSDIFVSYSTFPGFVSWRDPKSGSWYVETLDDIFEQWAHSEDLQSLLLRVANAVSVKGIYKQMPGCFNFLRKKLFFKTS

Bcl-XL = Bcl-XL (UniProt Q07817 1-233); assay: co-immunoprecipitation from co-transfected 293T cells (data not shown)
[4] = target: T4, FADD (Fas-associated death domain protein), expressed in 293T cells (human, UniProt Q13158 1-208); assay: as above
T4 construct: also called MORT-1; pcDNA3-FADD-AU1
T4 sequence (looked up): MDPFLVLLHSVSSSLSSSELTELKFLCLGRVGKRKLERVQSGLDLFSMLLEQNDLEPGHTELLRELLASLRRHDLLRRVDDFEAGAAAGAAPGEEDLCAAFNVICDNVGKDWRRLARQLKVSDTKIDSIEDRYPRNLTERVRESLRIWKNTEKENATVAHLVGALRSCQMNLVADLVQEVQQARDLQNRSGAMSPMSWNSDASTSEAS

c-IAP-2 = c-IAP-2 (UniProt Q13489 1-604); assay: as above
[5] = test system: FADD, RAIDD, Bcl-XL, and c-IAP-2; assay: Association of ARC with other apoptosis regulatory molecules; assay type: binding; details: data not shown
Experimental: Briefly, 2 μg of pcDNA3 or pcDNA3-ARC-Flag or -HA was co-transfected with 3 μg of pcDNA3 or caspase expression plasmids. Total amount of transfected plasmid DNA was always 5 μg. 293T cells were harvested after 22 hr and lysed with 0.2% NP-40 isotonic lysis buffer [Z. N. Oltvai et al., Cell 74:609-619 (1993)]. For immunoprecipitation, […] of soluble protein was incubated with 10 μg/ml of polyclonal anti-Flag, monoclonal anti-AU1 or polyclonal anti-HA antibody for 2 hr at 4° C. and tagged proteins were immunoprecipitated with Protein A-Sepharose 4B (Zymed Laboratories Inc., San Francisco, Calif.). Immunoprecipitates were subjected to 12% SDS-polyacrylamide electrophoresis and immunoblotted with anti-Flag, anti-AU1 or anti-HA antibodies.

caspase-8 = target: T5, caspase-8 (Homo sapiens, UniProt Q14790); assay: Caspase-8 enzymatic assay (DEVD-AMC) on immunoprecipitates of ARC co-transfected cells; assay type: biochemical; details: immunoprecipitated caspase-8 from 293T cells, fluorogenic substrate DEVD-AMC
T5 construct: expressed in transfected cells; host or cells: human 293T cells
Experimental: [293T cell were co-transfected with pcDNA3-caspase-8-AU1 or pcDNA3-caspase-8-mut and pcDNA3-ARC-Flag or pcDNA3]. Caspase-8 in cell extracts was immunoprecipitated with anti-AU1 antibody and immunoprecipitates were incubated with the fluorogenic substrate DEVD-AMC. ◯:pcDNA3 alone; ●:pcDNA3-ARC-HA alone; □:pcDNA3-caspase-8-AU1 alone; ▪:pcDNA3-caspase-8-AU1 and pcDNA3-ARC-HA; ^Δ:pcDNA3-caspase-8-mt-AU1 alone.
β-galactosidase apoptosis assay and Caspase-8 enzymatic assay: 5×10^5 293T cells were transfected with 0.3 μg of pcDNA3-β-gal plus each expression plasmid in triplicate. Cells were fixed 16 hrs after transfection, stained for β-galactosidase and assayed for morphological features of apoptosis [M. Muira et al., Cell 75:653-660 (1993)]. Statistical significance was determined by one-way ANOVA followed by Student-Neuman-Keuls post-doc comparisons. For caspase-8 enzymatic assay, 1.5×10^6 human 293T cells were co-transfected with pcDNA3, pcDNA3-ARC-Flag, pcDNA3-caspase-8 and pcDNA3-caspase-8-mt by a calcium phosphate method. Total amount of transfected plasmid DNA was always 2.5 μg. 293T cells were harvested 18hr after transfection and lysed with 0.2% NP-40 isotonic lysis buffer. Tagged proteins were immunoprecipitated and caspase activity was measured as described [N. Inohara et al., Proc. Natl. Acad. Sci. USA 94:10717-10722 (1997)].

Chain of c-IAP-2 (Q13489 whole entry): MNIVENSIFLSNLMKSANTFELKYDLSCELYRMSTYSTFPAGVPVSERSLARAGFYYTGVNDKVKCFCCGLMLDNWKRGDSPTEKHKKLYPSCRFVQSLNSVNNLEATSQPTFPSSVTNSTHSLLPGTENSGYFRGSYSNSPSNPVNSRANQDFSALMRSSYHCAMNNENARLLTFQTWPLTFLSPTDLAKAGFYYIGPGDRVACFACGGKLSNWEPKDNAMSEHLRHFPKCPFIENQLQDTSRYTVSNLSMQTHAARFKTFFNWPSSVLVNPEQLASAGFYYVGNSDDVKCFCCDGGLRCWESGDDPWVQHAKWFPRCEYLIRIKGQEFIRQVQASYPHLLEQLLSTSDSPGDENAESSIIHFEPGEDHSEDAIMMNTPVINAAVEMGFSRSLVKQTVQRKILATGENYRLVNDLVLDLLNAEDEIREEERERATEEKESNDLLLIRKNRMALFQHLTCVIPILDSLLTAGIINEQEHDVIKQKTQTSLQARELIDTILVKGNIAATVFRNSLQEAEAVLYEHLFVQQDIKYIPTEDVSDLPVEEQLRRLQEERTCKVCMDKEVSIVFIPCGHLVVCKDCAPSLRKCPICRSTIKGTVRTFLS
T5 sequence (Q14790 1-496 isoform Q14790-4): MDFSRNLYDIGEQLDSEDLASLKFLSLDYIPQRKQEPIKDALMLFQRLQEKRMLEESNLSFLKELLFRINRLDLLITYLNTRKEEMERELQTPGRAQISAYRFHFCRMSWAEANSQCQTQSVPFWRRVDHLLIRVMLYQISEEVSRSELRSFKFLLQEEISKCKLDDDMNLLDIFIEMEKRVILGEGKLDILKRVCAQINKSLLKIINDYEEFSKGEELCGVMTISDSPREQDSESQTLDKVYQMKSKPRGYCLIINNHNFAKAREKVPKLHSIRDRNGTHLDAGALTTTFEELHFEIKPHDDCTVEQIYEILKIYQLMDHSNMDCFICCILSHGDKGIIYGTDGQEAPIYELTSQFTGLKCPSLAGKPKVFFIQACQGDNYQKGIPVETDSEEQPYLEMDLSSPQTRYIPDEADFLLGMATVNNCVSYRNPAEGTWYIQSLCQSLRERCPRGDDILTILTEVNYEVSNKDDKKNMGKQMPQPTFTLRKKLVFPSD
Chain of Bcl-XL (Q07817 whole entry, the tested form may be a part): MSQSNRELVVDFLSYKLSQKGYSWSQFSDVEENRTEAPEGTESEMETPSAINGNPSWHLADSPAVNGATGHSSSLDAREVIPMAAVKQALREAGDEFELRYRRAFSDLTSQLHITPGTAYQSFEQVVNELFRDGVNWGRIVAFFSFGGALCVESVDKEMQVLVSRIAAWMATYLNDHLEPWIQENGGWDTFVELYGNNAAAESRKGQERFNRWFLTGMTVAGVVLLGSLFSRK

binding result [1]: no binding | binding result [2]: no binding | binding result [3]: no binding | binding result (Bcl-XL): no binding | binding result (c-IAP-2): no binding | enzymatic activity of caspase-8 (caspase-8): inhibited
B1: human ARC (Apoptosis Repressor with CARD domain), C-terminally Flag- or HA-tagged (other)
chain: MGNAQERPSETIDRERKRLVETLQADSGLLLDALLARGVLTGPEYEALDALPDAERRVRRLLLLVQGKGEAACQELLRCAQRTAGAPDPAWDWQHVGPGYRDRSYDPPCPGHWTPEAPGSGTTCPGLPRASDPDEAGGPEGSEAVQSGTPEEPEPELEAEASKEAEPEPEPEPELEPEAEAEPEPELEPEPDPEPEPDFEERDESEDS
notes: Entire open reading frame expressed in 293T cells; The two tagged constructs are merged here; also called ARC-Flag; ARC-HA; not shown: C-terminal FLAG or HA tag
binding result [4]: no binding | association with FADD, RAIDD, Bcl-XL, and c-IAP-2 [5]: did not associate
